These substances were tested against human IgG (human) (assay: BLI Octet, construct on Ni-NTA sensor, hIgG in solution).

| Substance | Kd | Response (nm) | koff | kon |
| --- | --- | --- | --- | --- |
| HSV2-gE_A246W P317F_gI (from UniProt P89475 21-416; P06764 21-256) (receptor) | < 0.001 nM | 0.101 nm | < 1e-07 s⁻¹ | 6180 M⁻¹ s⁻¹ |
| HSV2-gE_A246W P317K_gI (from UniProt P89475 21-416; P06764 21-256) (receptor) | < 0.001 nM | 0.071 nm | < 1e-07 s⁻¹ | 6090 M⁻¹ s⁻¹ |
| HSV2-gE_A246W P317S_gI (from UniProt P89475 21-416; P06764 21-256) (receptor) | < 0.001 nM | 0.121 nm | < 1e-07 s⁻¹ | 3600 M⁻¹ s⁻¹ |
| HSV2-gE_A246W R320D_gI (from UniProt P89475 21-416; P06764 21-256) (receptor) | < 0.001 nM | 0.0712 nm | < 1e-07 s⁻¹ | 2260 M⁻¹ s⁻¹ |
| HSV2-gE_A248G F322A_gI (from UniProt P89475 21-416; P06764 21-256) (receptor) | 270 nM | 0.559 nm | 0.00352 s⁻¹ | 13100 M⁻¹ s⁻¹ |
| HSV2-gE_A248G F322I_gI (from UniProt P89475 21-416; P06764 21-256) (receptor) | 465 nM | 0.373 nm | 0.00439 s⁻¹ | 9450 M⁻¹ s⁻¹ |
| HSV2-gE_A248G F322P_gI (from UniProt P89475 21-416; P06764 21-256) (receptor) | 320 nM | 0.497 nm | 0.00367 s⁻¹ | 11500 M⁻¹ s⁻¹ |
| HSV2-gE_A248G V340M_gI (from UniProt P89475 21-416; P06764 21-256) (receptor) | 571 nM | 0.452 nm | 0.0052 s⁻¹ | 9110 M⁻¹ s⁻¹ |
| HSV2-gE_A248G V340R_gI (from UniProt P89475 21-416; P06764 21-256) (receptor) | 8960 nM | 0.303 nm | 0.00461 s⁻¹ | 514 M⁻¹ s⁻¹ |
| HSV2-gE_A248G_gI (from UniProt P89475 21-416; P06764 21-256) (receptor) | 560 nM | 0.506 nm | 0.00551 s⁻¹ | 9840 M⁻¹ s⁻¹ |
| HSV2-gE_A248K F322A_gI (from UniProt P89475 21-416; P06764 21-256) (receptor) | 408 nM | 0.481 nm | 0.00397 s⁻¹ | 9720 M⁻¹ s⁻¹ |
| HSV2-gE_A248K F322I_gI (from UniProt P89475 21-416; P06764 21-256) (receptor) | 870 nM | 0.321 nm | 0.00525 s⁻¹ | 6040 M⁻¹ s⁻¹ |
| HSV2-gE_A248K F322P_gI (from UniProt P89475 21-416; P06764 21-256) (receptor) | 498 nM | 0.427 nm | 0.00461 s⁻¹ | 9250 M⁻¹ s⁻¹ |
| HSV2-gE_A248K V340M_gI (from UniProt P89475 21-416; P06764 21-256) (receptor) | < 0.001 nM | 0.0007 nm | < 1e-07 s⁻¹ | 237 M⁻¹ s⁻¹ |
| HSV2-gE_A248K V340R_gI (from UniProt P89475 21-416; P06764 21-256) (receptor) | < 0.001 nM | 0.0449 nm | < 1e-07 s⁻¹ | 3040 M⁻¹ s⁻¹ |
| HSV2-gE_A248K_gI (from UniProt P89475 21-416; P06764 21-256) (receptor) | 450 nM | 0.477 nm | 0.00499 s⁻¹ | 11100 M⁻¹ s⁻¹ |
| HSV2-gE_A248T F322I_gI (from UniProt P89475 21-416; P06764 21-256) (receptor) | 8850 nM | 0.184 nm | 0.00486 s⁻¹ | 549 M⁻¹ s⁻¹ |
| HSV2-gE_A248T F322P_gI (from UniProt P89475 21-416; P06764 21-256) (receptor) | 1490 nM | 0.2 nm | 0.00426 s⁻¹ | 2870 M⁻¹ s⁻¹ |
| HSV2-gE_A248T V340R_gI (from UniProt P89475 21-416; P06764 21-256) (receptor) | < 0.001 nM | 0.183 nm | < 1e-07 s⁻¹ | 5000 M⁻¹ s⁻¹ |
| HSV2-gE_F322A_gI (from UniProt P89475 21-416; P06764 21-256) (receptor) | 167 nM | 0.86 nm | 0.00273 s⁻¹ | 16400 M⁻¹ s⁻¹ |
| HSV2-gE_F322I_gI (from UniProt P89475 21-416; P06764 21-256) (receptor) | 302 nM | 0.639 nm | 0.00363 s⁻¹ | 12000 M⁻¹ s⁻¹ |
| HSV2-gE_F322K_gI (from UniProt P89475 21-416; P06764 21-256) (receptor) | 278 nM | 0.599 nm | 0.00301 s⁻¹ | 10800 M⁻¹ s⁻¹ |
| HSV2-gE_F322N_gI (from UniProt P89475 21-416; P06764 21-256) (receptor) | 239 nM | 0.73 nm | 0.00313 s⁻¹ | 13100 M⁻¹ s⁻¹ |
| HSV2-gE_F322P_gI (from UniProt P89475 21-416; P06764 21-256) (receptor) | 160 nM | 0.807 nm | 0.00223 s⁻¹ | 13900 M⁻¹ s⁻¹ |

| Substance | Kd | Response (nm) | koff | kon |
| --- | --- | --- | --- | --- |
| HSV2-gE_F322T_gI (from UniProt P89475 21-416; P06764 21-256) (receptor) | 179 nM | 0.762 nm | 0.00269 s⁻¹ | 15000 M⁻¹ s⁻¹ |
| HSV2-gE_H245A P319G_gI (from UniProt P89475 21-416; P06764 21-256) (receptor) | 491 nM | 0.26 nm | 0.00391 s⁻¹ | 7970 M⁻¹ s⁻¹ |
| HSV2-gE_H245A P319L_gI (from UniProt P89475 21-416; P06764 21-256) (receptor) | 449 nM | 0.265 nm | 0.00273 s⁻¹ | 6080 M⁻¹ s⁻¹ |
| HSV2-gE_H245G P319G_gI (from UniProt P89475 21-416; P06764 21-256) (receptor) | 2010 nM | 0.157 nm | 0.00357 s⁻¹ | 1780 M⁻¹ s⁻¹ |
| HSV2-gE_H245G P319L_gI (from UniProt P89475 21-416; P06764 21-256) (receptor) | 327 nM | 0.361 nm | 0.00189 s⁻¹ | 5760 M⁻¹ s⁻¹ |
| HSV2-gE_H245G R320T_gI (from UniProt P89475 21-416; P06764 21-256) (receptor) | 591 nM | 0.279 nm | 0.00319 s⁻¹ | 5400 M⁻¹ s⁻¹ |
| HSV2-gE_H245G_gI (from UniProt P89475 21-416; P06764 21-256) (receptor) | 1630 nM | 0.424 nm | 0.00669 s⁻¹ | 4110 M⁻¹ s⁻¹ |
| HSV2-gE_H245I_gI (from UniProt P89475 21-416; P06764 21-256) (receptor) | 183 nM | 1.02 nm | 0.00301 s⁻¹ | 16500 M⁻¹ s⁻¹ |
| HSV2-gE_H245K_gI (from UniProt P89475 21-416; P06764 21-256) (receptor) | 686 nM | 0.562 nm | 0.00614 s⁻¹ | 8960 M⁻¹ s⁻¹ |
| HSV2-gE_H245Q_gI (from UniProt P89475 21-416; P06764 21-256) (receptor) | 320 nM | 0.896 nm | 0.0048 s⁻¹ | 15000 M⁻¹ s⁻¹ |
| HSV2-gE_H245R_gI (from UniProt P89475 21-416; P06764 21-256) (receptor) | 265 nM | 0.842 nm | 0.00416 s⁻¹ | 15700 M⁻¹ s⁻¹ |
| HSV2-gE_H245S_gI (from UniProt P89475 21-416; P06764 21-256) (receptor) | 866 nM | 0.46 nm | 0.00658 s⁻¹ | 7600 M⁻¹ s⁻¹ |
| HSV2-gE_H245T_gI (from UniProt P89475 21-416; P06764 21-256) (receptor) | 813 nM | 0.493 nm | 0.00605 s⁻¹ | 7450 M⁻¹ s⁻¹ |
| HSV2-gE_H245V_gI (from UniProt P89475 21-416; P06764 21-256) (receptor) | 486 nM | 0.745 nm | 0.00573 s⁻¹ | 11800 M⁻¹ s⁻¹ |
| HSV2-gE_P317F_gI (from UniProt P89475 21-416; P06764 21-256) (receptor) | 8770 nM | 0.143 nm | 0.00166 s⁻¹ | 189 M⁻¹ s⁻¹ |
| HSV2-gE_P317G_gI (from UniProt P89475 21-416; P06764 21-256) (receptor) | 555 nM | 0.338 nm | 0.00429 s⁻¹ | 7740 M⁻¹ s⁻¹ |
| HSV2-gE_P317I_gI (from UniProt P89475 21-416; P06764 21-256) (receptor) | 1000 nM | 0.243 nm | 0.00382 s⁻¹ | 3810 M⁻¹ s⁻¹ |
| HSV2-gE_P317K_gI (from UniProt P89475 21-416; P06764 21-256) (receptor) | 374 nM | 0.13 nm | 0.00136 s⁻¹ | 3640 M⁻¹ s⁻¹ |
| HSV2-gE_P317L_gI (from UniProt P89475 21-416; P06764 21-256) (receptor) | 5110 nM | 0.161 nm | 0.00181 s⁻¹ | 354 M⁻¹ s⁻¹ |
| HSV2-gE_P317N_gI (from UniProt P89475 21-416; P06764 21-256) (receptor) | 500 nM | 0.381 nm | 0.00459 s⁻¹ | 9180 M⁻¹ s⁻¹ |
| HSV2-gE_P317S_gI (from UniProt P89475 21-416; P06764 21-256) (receptor) | 255 nM | 0.669 nm | 0.00358 s⁻¹ | 14000 M⁻¹ s⁻¹ |
| HSV2-gE_P318D_gI (from UniProt P89475 21-416; P06764 21-256) (receptor) | < 0.001 nM | 0.0995 nm | < 1e-07 s⁻¹ | 5180 M⁻¹ s⁻¹ |
| HSV2-gE_P318Q_gI (from UniProt P89475 21-416; P06764 21-256) (receptor) | 443 nM | 0.152 nm | 0.00139 s⁻¹ | 3150 M⁻¹ s⁻¹ |
| HSV2-gE_P318R_gI (from UniProt P89475 21-416; P06764 21-256) (receptor) | 794 nM | 0.151 nm | 0.000756 s⁻¹ | 952 M⁻¹ s⁻¹ |

— patent publication US20220273789A1
